Biological target: TSLP Receptor (TSLPR), heterodimer of the IL7 receptor alpha (IL7Rα) chain and the TSLP-specific receptor chain (TSLPR; Crlf2), on mouse DRG sensory neurons (mouse) (UniProt Q8CII9)
Test: cell-based or functional assay

Sequence of TSLP Receptor (TSLPR), heterodimer of the IL7 receptor alpha (IL7Rα) chain and the TSLP-specific receptor chain (TSLPR; Crlf2), on mouse DRG sensory neurons (mouse) (Q8CII9 20-359, chain 1 of 2): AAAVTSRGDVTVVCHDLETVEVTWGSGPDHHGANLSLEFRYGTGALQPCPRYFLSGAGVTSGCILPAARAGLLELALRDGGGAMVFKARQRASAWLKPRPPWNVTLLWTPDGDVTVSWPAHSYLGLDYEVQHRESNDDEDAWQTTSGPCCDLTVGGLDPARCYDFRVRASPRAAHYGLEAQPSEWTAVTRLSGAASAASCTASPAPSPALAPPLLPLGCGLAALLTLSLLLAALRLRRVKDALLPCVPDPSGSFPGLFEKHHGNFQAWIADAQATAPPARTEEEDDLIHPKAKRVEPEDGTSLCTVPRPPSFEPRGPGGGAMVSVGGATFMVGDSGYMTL
Sequence of TSLP Receptor (TSLPR), heterodimer of the IL7 receptor alpha (IL7Rα) chain and the TSLP-specific receptor chain (TSLPR; Crlf2), on mouse DRG sensory neurons (mouse) (P16872 21-459, chain 2 of 2, further chain): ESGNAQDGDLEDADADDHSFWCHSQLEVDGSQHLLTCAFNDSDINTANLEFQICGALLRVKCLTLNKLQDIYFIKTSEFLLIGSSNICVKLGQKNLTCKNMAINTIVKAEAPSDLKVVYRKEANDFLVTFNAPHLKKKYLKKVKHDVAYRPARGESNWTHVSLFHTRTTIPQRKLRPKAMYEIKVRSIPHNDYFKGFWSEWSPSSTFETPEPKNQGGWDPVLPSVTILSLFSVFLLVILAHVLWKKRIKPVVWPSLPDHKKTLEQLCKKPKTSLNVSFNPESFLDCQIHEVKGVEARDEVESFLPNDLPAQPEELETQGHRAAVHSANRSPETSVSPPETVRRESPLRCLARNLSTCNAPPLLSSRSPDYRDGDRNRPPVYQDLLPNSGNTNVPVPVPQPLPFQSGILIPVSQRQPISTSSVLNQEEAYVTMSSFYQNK

**Q.** With “Thymic Stromal Lymphopoietin (TSLP) (ligand)” as the substance, how does the prevalence of DRG neurons with increases in intracellular Ca2+ following TSLP application (ratiometric Ca2+ imaging) read?
**A.** 4.1%
